# Measured values taken from the MegaScale stability set (Tsuboyama et al. 2023).
# B1: EHEE_rd4_0726 (parent)
# chain: DIEITTNGEEDAKRVIKELQKRNLEYHIEVHGNQWVIKVR
# Variants of: B1
# Test: folding stability dG (cDNA display proteolysis); higher = more stable
# Conditions: PBS, room temperature
row,Variant,folding stability dG [kcal/mol]
1,DIEITTNGEEDAKRVIKELTKRNLEYHIEVHGNQWVIKVR [Q20T],2.17
2,DIEITTNGEEDAKRVIKELDKRNLEYHIEVHGNQWVIKVR [Q20D],2.29
3,DIEITTNGEEDAKRVIKELPKRNLEYHIEVHGNQWVIKVR [Q20P],-0.448
4,DIEITTNGEEDAKRVIKELNKRNLEYHIEVHGNQWVIKVR [Q20N],2.22
5,DIEITTNGEEDAKRVIKELVKRNLEYHIEVHGNQWVIKVR [Q20V],2.4
6,DIEITTNGEEDAKRVIKELEKRNLEYHIEVHGNQWVIKVR [Q20E],2.68
7,DIEITTNGEEDAKRVIKELIKRNLEYHIEVHGNQWVIKVR [Q20I],2.77
8,DIEITTNGEEDAKRVIKELAKRNLEYHIEVHGNQWVIKVR [Q20A],2.11
9,DIEITTNGEEDAKRVIKELCKRNLEYHIEVHGNQWVIKVR [Q20C],1.98
10,DIEITTNGEEDAKRVIKELLKRNLEYHIEVHGNQWVIKVR [Q20L],2.39
11,DIEITTNGEEDAKRVIKELGKRNLEYHIEVHGNQWVIKVR [Q20G],1.48
12,DIEITTNGEEDAKRVIKELYKRNLEYHIEVHGNQWVIKVR [Q20Y],1.64
13,DIEITTNGEEDAKRVIKELWKRNLEYHIEVHGNQWVIKVR [Q20W],1.79
14,DIEITTNGEEDAKRVIKELMKRNLEYHIEVHGNQWVIKVR [Q20M],2.4
15,DIEITTNGEEDAKRVIKELKKRNLEYHIEVHGNQWVIKVR [Q20K],2.49
16,DIEITTNGEEDAKRVIKELSKRNLEYHIEVHGNQWVIKVR [Q20S],1.9
17,DIEITTNGEEDAKRVIKELRKRNLEYHIEVHGNQWVIKVR [Q20R],2.56
18,DIEITTNGEEDAKRVIKELFKRNLEYHIEVHGNQWVIKVR [Q20F],1.68
19,DIEITTNGEEDAKRVIKELHKRNLEYHIEVHGNQWVIKVR [Q20H],1.85
20,DIEITTNGEEDAKRVIKELQKRKLEYHIEVHGNQWVIKVR [N23K],2.42
21,DIEITTNGEEDAKRVIKELQKRSLEYHIEVHGNQWVIKVR [N23S],1.95
22,DIEITTNGEEDAKRVIKELQKRFLEYHIEVHGNQWVIKVR [N23F],1.92
23,DIEITTNGEEDAKRVIKELQKRGLEYHIEVHGNQWVIKVR [N23G],3.26
24,DIEITTNGEEDAKRVIKELQKRALEYHIEVHGNQWVIKVR [N23A],2.03
25,DIEITTNGEEDAKRVIKELQKRHLEYHIEVHGNQWVIKVR [N23H],2.4

row,Variant,folding stability dG [kcal/mol]
1,DIEITTNGEEDAKRVIKELQKRMLEYHIEVHGNQWVIKVR [N23M],2.13
2,DIEITTNGEEDAKRVIKELQKRLLEYHIEVHGNQWVIKVR [N23L],1.77
3,DIEITTNGEEDAKRVIKELQKRPLEYHIEVHGNQWVIKVR [N23P],0.565
4,DIEITTNGEEDAKRVIKELQKRTLEYHIEVHGNQWVIKVR [N23T],1.2
5,DIEITTNGEEDAKRVIKELQKRWLEYHIEVHGNQWVIKVR [N23W],1.51
6,DIEITTNGEEDAKRVIKELQKRCLEYHIEVHGNQWVIKVR [N23C],1.79
7,DIEITTNGEEDAKRVIKELQKRRLEYHIEVHGNQWVIKVR [N23R],2.43
8,DIEITTNGEEDAKRVIKELQKRQLEYHIEVHGNQWVIKVR [N23Q],2.18
9,DIEITTNGEEDAKRVIKELQKRDLEYHIEVHGNQWVIKVR [N23D],1.72
10,DIEITTNGEEDAKRVIKELQKRYLEYHIEVHGNQWVIKVR [N23Y],1.67
11,DIEITTNGEEDAKRVIKELQKRVLEYHIEVHGNQWVIKVR [N23V],1.09
12,DIEITTNGEEDAKRVIKELQKRILEYHIEVHGNQWVIKVR [N23I],0.939
13,DIEITTNGEEDAKRVIKELQKRELEYHIEVHGNQWVIKVR [N23E],1.66
14,DIEITTNGEEDAKRVIKELQKRNLEFHIEVHGNQWVIKVR [Y26F],2.54
15,DIEITTNGEEDAKRVIKELQKRNLEHHIEVHGNQWVIKVR [Y26H],0.887
16,DIEITTNGEEDAKRVIKELQKRNLELHIEVHGNQWVIKVR [Y26L],1.35
17,DIEITTNGEEDAKRVIKELQKRNLEPHIEVHGNQWVIKVR [Y26P],0.491
18,DIEITTNGEEDAKRVIKELQKRNLEAHIEVHGNQWVIKVR [Y26A],1.07
19,DIEITTNGEEDAKRVIKELQKRNLEIHIEVHGNQWVIKVR [Y26I],1.53
20,DIEITTNGEEDAKRVIKELQKRNLESHIEVHGNQWVIKVR [Y26S],0.005
21,DIEITTNGEEDAKRVIKELQKRNLEMHIEVHGNQWVIKVR [Y26M],1.13
22,DIEITTNGEEDAKRVIKELQKRNLEGHIEVHGNQWVIKVR [Y26G],0.722
23,DIEITTNGEEDAKRVIKELQKRNLAYHIEVHGNQWVIKVR [E25A],2.53
24,DIEITTNGEEDAKRVIKELQKRNLYYHIEVHGNQWVIKVR [E25Y],2.43
25,DIEITTNGEEDAKRVIKELQKRNLNYHIEVHGNQWVIKVR [E25N],2.28

row,Variant,folding stability dG [kcal/mol]
1,DIEITTNGEEDAKRVIKELQKRNLRYHIEVHGNQWVIKVR [E25R],2.58
2,DIEITTNGEEDAKRVIKELQKRNLSYHIEVHGNQWVIKVR [E25S],2.67
3,DIEITTNGEEDAKRVIKELQKRNLMYHIEVHGNQWVIKVR [E25M],2.52
4,DIEITTNGEEDAKRVIKELQKRNLDYHIEVHGNQWVIKVR [E25D],2.31
5,DIEITTNGEEDAKRVIKELQKRNLLYHIEVHGNQWVIKVR [E25L],2.6
6,DIEITTNGEEDAKRVIKELQKRNLHYHIEVHGNQWVIKVR [E25H],2.7
7,DIEITTNGEEDAKRVIKELQKRNLKYHIEVHGNQWVIKVR [E25K],2.76
8,DIEITTNGEEDAKRVIKELQKRNLPYHIEVHGNQWVIKVR [E25P],2.33
9,DIEITTNGEEDAKRVIKELQKRNLGYHIEVHGNQWVIKVR [E25G],2.04
10,DIEITTNGEEDAKRVIKELQKRNLIYHIEVHGNQWVIKVR [E25I],2.66
11,DIEITTNGEEDAKRVIKELQKRNLTYHIEVHGNQWVIKVR [E25T],2.66
12,DIEITTNGEEDAKRVIKELQKRNLQYHIEVHGNQWVIKVR [E25Q],2.6
13,DIEITTNGEEDAKRVIKELQKRNLFYHIEVHGNQWVIKVR [E25F],2.49
14,DIEITTNGEEDAKRVIKELQKRNLWYHIEVHGNQWVIKVR [E25W],2.52
15,DIEITTNGEEDAKRVIKELQKRNLVYHIEVHGNQWVIKVR [E25V],2.58
16,DIEITTNGEEDAKRVIKELQKTNLEYHIEVHGNQWVIKVR [R22T],1.51
17,DIEITTNGEEDAKRVIKELQKNNLEYHIEVHGNQWVIKVR [R22N],1.97
18,DIEITTNGEEDAKRVIKELQKLNLEYHIEVHGNQWVIKVR [R22L],2.88
19,DIEITTNGEEDAKRVIKELQKDNLEYHIEVHGNQWVIKVR [R22D],1.33
20,DIEITTNGEEDAKRVIKELQKQNLEYHIEVHGNQWVIKVR [R22Q],2.45
21,DIEITTNGEEDAKRVIKELQKENLEYHIEVHGNQWVIKVR [R22E],1.49
22,DIEITTNGEEDAKRVIKELQKPNLEYHIEVHGNQWVIKVR [R22P],0.049
23,DIEITTNGEEDAKRVIKELQKHNLEYHIEVHGNQWVIKVR [R22H],2.33
24,DIEITTNGEEDAKRVIKELQKCNLEYHIEVHGNQWVIKVR [R22C],2.62
25,DIEITTNGEEDAKRVIKELQKVNLEYHIEVHGNQWVIKVR [R22V],1.45

row,Variant,folding stability dG [kcal/mol]
1,DIEITTNGEEDAKRVIKELQKKNLEYHIEVHGNQWVIKVR [R22K],2.17
2,DIEITTNGEEDAKRVIKELQKANLEYHIEVHGNQWVIKVR [R22A],2.25
3,DIEITTNGEEDAKRVIKELQKWNLEYHIEVHGNQWVIKVR [R22W],2.65
4,DIEITTNGEEDAKRVIKELQKFNLEYHIEVHGNQWVIKVR [R22F],2.39
5,DIEITTNGEEDAKRVIKELQKYNLEYHIEVHGNQWVIKVR [R22Y],2.62
6,DIEITTNGEEDAKRVIKELQKSNLEYHIEVHGNQWVIKVR [R22S],1.76
7,DIEITTNGEEDAKRVIKELQKGNLEYHIEVHGNQWVIKVR [R22G],1.45
8,DIEITTNGEEDAKRVIKELQKMNLEYHIEVHGNQWVIKVR [R22M],2.66
9,DIEITTNGEEDAKRVIKELQKINLEYHIEVHGNQWVIKVR [R22I],1.54
10,DIEITTNGEEDAKRVIKELQKRNMEYHIEVHGNQWVIKVR [L24M],2.19
11,DIEITTNGEEDAKRVIKELQKRNPEYHIEVHGNQWVIKVR [L24P],-0.114
12,DIEITTNGEEDAKRVIKELQKRNYEYHIEVHGNQWVIKVR [L24Y],1.89
13,DIEITTNGEEDAKRVIKELQKRNSEYHIEVHGNQWVIKVR [L24S],1.04
14,DIEITTNGEEDAKRVIKELQKRNTEYHIEVHGNQWVIKVR [L24T],1.14
15,DIEITTNGEEDAKRVIKELQKRNKEYHIEVHGNQWVIKVR [L24K],1.67
16,DIEITTNGEEDAKRVIKELQKRNFEYHIEVHGNQWVIKVR [L24F],1.81
17,DIEITTNGEEDAKRVIKELQKRNREYHIEVHGNQWVIKVR [L24R],1.65
18,DIEITTNGEEDAKRVIKELQKRNGEYHIEVHGNQWVIKVR [L24G],0.458
19,DIEITTNGEEDAKRVIKELQKRNQEYHIEVHGNQWVIKVR [L24Q],1.45
20,DIEITTNGEEDAKRVIKELQKRNVEYHIEVHGNQWVIKVR [L24V],2.19
21,DIEITTNGEEDAKRVIKELQKRNNEYHIEVHGNQWVIKVR [L24N],0.681
22,DIEITTNGEEDAKRVIKELQKRNHEYHIEVHGNQWVIKVR [L24H],1.13
23,DIEITTNGEEDAKRVIKELQKRNEEYHIEVHGNQWVIKVR [L24E],1.01
24,DIEITTNGEEDAKRVIKELQKRNIEYHIEVHGNQWVIKVR [L24I],2.46
25,DIEITTNGEEDAKRVIKELQKRNDEYHIEVHGNQWVIKVR [L24D],0.415

row,Variant,folding stability dG [kcal/mol]
1,DIEITTNGEEDAKRVIKELQKRNAEYHIEVHGNQWVIKVR [L24A],1.7
2,DIEITTNGEEDAKRVIKELQKRNWEYHIEVHGNQWVIKVR [L24W],2.05
3,DIEITTNGEEDAKRVIKEMQKRNLEYHIEVHGNQWVIKVR [L19M],1.32
4,DIEITTNGEEDAKRVIKEYQKRNLEYHIEVHGNQWVIKVR [L19Y],0.81
5,DIEITTNGEEDAKRVIKEVQKRNLEYHIEVHGNQWVIKVR [L19V],0.98
6,DIEITTNGEEDAKRVIKETQKRNLEYHIEVHGNQWVIKVR [L19T],-0.334
7,DIEITTNGEEDAKRVIKEWQKRNLEYHIEVHGNQWVIKVR [L19W],0.45
8,DIEITTNGEEDAKRVIKELQYRNLEYHIEVHGNQWVIKVR [K21Y],2.08
9,DIEITTNGEEDAKRVIKELQIRNLEYHIEVHGNQWVIKVR [K21I],2.19
10,DIEITTNGEEDAKRVIKELQNRNLEYHIEVHGNQWVIKVR [K21N],2.21
11,DIEITTNGEEDAKRVIKELQRRNLEYHIEVHGNQWVIKVR [K21R],2.75
12,DIEITTNGEEDAKRVIKELQGRNLEYHIEVHGNQWVIKVR [K21G],1.86
13,DIEITTNGEEDAKRVIKELQMRNLEYHIEVHGNQWVIKVR [K21M],2.51
14,DIEITTNGEEDAKRVIKELQTRNLEYHIEVHGNQWVIKVR [K21T],1.91
15,DIEITTNGEEDAKRVIKELQLRNLEYHIEVHGNQWVIKVR [K21L],2.65
16,DIEITTNGEEDAKRVIKELQHRNLEYHIEVHGNQWVIKVR [K21H],2.02
17,DIEITTNGEEDAKRVIKELQARNLEYHIEVHGNQWVIKVR [K21A],2.54
18,DIEITTNGEEDAKRVIKELQERNLEYHIEVHGNQWVIKVR [K21E],2.44
19,DIEITTNGEEDAKRVIKELQDRNLEYHIEVHGNQWVIKVR [K21D],2.3
20,DIEITTNGEEDAKRVIKELQPRNLEYHIEVHGNQWVIKVR [K21P],0.042
21,DIEITTNGEEDAKRVIKELQSRNLEYHIEVHGNQWVIKVR [K21S],2.3
22,DIEITTNGEEDAKRVIKELQVRNLEYHIEVHGNQWVIKVR [K21V],1.91
23,DIEITTNGEEDAKRVIKELQWRNLEYHIEVHGNQWVIKVR [K21W],2.04
24,DIEITTNGEEDAKRVIKELQFRNLEYHIEVHGNQWVIKVR [K21F],2.25
25,DIEITTNGEEDAKRVIKELQQRNLEYHIEVHGNQWVIKVR [K21Q],2.23
